Reference: publication PMC4513882
Where two headings read alike, the source gives them in different places.

B1: RNA:DNA40 (DNA:RNA)
RNA: CACCAAUUCGUCUUAGGGUUAAUCUUGAAGCUAGAGUUAA
DNA: TTAACTCTAGCTTCAAGATTAACCCTAAGACGAATTGGTG
B2: ssDNA57 (ssDNA)
DNA: TGGAGAATCCCGGTGCCGAGGCCGCTCAATTGGTCGTAGACAGCTCTAGCACCGCTT
B3: dsDNA57 (dsDNA)
DNA 1: B2 DNA
DNA 2: AAGCGGTGCTAGAGCTGTCTACGACCAATTGAGCGGCCTCGGCACCGGGATTCTCCA
B4: ssRNA90 (ssRNA)
RNA: GGGGAAUUGUGAGCGGAUAACAAUUCCCCUCUAGAAAUAAUUUUGUUUAACUUUAAGAAGGAGAUAUACAUAUGCACCAUCAUCAUCAUC
B5: ssDNA90 (ssDNA)
DNA: TGGAGAATCCCGGTGCCGAGGCCGCTCAATTGGTCGTAGACAGCTCTAGCACCGCTTGAAGGAGATATACATACATTAATTGCGTTGCGC

Tests used:
SAMHD1 wt [1] = target: T1, SAMHD1 wt (human, UniProt Q9Y3Z3 1-626); test: fluorescence anisotropy
T1 sequence (Q9Y3Z3 whole entry): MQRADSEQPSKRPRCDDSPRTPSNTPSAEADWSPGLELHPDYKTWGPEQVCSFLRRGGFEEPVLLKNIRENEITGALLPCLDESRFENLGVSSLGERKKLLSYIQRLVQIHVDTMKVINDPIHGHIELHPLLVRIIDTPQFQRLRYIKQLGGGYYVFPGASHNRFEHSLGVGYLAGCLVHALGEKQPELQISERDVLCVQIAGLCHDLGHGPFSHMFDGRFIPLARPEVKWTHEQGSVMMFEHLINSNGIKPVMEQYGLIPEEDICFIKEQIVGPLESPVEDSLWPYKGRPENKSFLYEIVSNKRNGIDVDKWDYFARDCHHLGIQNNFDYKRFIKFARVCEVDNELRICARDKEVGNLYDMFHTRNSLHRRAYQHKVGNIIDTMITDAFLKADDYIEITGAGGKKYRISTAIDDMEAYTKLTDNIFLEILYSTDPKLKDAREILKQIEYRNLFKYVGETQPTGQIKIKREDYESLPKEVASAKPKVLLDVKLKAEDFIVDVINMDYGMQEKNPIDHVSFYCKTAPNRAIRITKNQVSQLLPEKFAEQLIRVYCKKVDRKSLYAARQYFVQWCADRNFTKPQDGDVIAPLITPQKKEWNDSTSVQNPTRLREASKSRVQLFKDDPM

SAMHD1 R451E = SAMHD1 R451E (human, UniProt Q9Y3Z3 1-626, R451E); test: fluorescence anisotropy
Sequence of SAMHD1 R451E (Q9Y3Z3 whole entry R451E): as the sequence (Q9Y3Z3 whole entry) above, with R451E counted along it

SAMHD1 T592E = SAMHD1 T592E (human, UniProt Q9Y3Z3 1-626, T592E); test: fluorescence anisotropy
Sequence of SAMHD1 T592E (Q9Y3Z3 whole entry T592E): as the sequence (Q9Y3Z3 whole entry) above, with T592E counted along it

SAMHD1 Q548A = SAMHD1 Q548A (human, UniProt Q9Y3Z3 1-626, Q548A); test: fluorescence anisotropy
Sequence of SAMHD1 Q548A (Q9Y3Z3 whole entry Q548A): as the sequence (Q9Y3Z3 whole entry) above, with Q548A counted along it

SAMHD1 ΔSAM (Δ112) = SAMHD1 ΔSAM (Δ112) (human, UniProt Q9Y3Z3 113-626, del1-112); test: fluorescence anisotropy
Sequence of SAMHD1 ΔSAM (Δ112) (Q9Y3Z3 113-626, stated change not applied): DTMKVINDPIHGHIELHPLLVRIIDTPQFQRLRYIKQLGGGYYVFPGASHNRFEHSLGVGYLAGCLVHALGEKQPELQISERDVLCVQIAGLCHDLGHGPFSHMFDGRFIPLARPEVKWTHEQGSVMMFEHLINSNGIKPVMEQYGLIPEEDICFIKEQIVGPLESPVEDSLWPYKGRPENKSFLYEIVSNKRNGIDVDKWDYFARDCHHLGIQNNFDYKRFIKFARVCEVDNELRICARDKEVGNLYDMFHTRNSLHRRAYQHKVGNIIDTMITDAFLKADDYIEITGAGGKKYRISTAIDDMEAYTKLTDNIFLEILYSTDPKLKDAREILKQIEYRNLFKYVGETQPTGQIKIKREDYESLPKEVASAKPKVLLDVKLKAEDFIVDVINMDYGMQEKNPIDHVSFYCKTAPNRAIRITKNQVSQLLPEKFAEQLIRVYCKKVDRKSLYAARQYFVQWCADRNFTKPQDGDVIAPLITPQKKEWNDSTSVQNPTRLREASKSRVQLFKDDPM

SAMHD1 wt [2] = target: T1, SAMHD1 wt; test: fluorescence anisotropy; remark: listed apart in the source
SAMHD1 wt [3] = target: T1, SAMHD1 wt; test: competition
SAMHD1 wt [4] = target: T1, SAMHD1 wt; test: competition; remark: listed apart in the source

Binder	apparent K (half saturation) (SAMHD1 wt [1]) [nM]	binding result (SAMHD1 T592E)	binding result (SAMHD1 Q548A)	other results
B1	2000 ± 400	–	–	–
CACCAAUUCGUCUUAGGGUUAAUCUUGAAGCUAGAGUUAA (ssRNA) [ssRNA40]	–	binds	binds	binding result (SAMHD1 R451E): binds; binding result (SAMHD1 ΔSAM (Δ112)): binds
B2	450 ± 130	binds	binds	–
B3	–	–	–	apparent K (half saturation) (SAMHD1 wt [2]): 18 ± 2 µM
B4	–	–	–	binding result (SAMHD1 wt [3]): binds
B5	–	–	–	binding result (SAMHD1 wt [4]): binds
